Results published in US20120220029, “MUTANT SOX PROTEINS AND METHODS OF INDUCING PLURIPOTENCY” (Agency for Science, Technology and Research, published 2012).

Assays:
Experiment in all cases: EMSA
Sox17EK HMG/Oct4POU = Sox17EK HMG/Oct4POU (Mus musculus, UniProt Q61473;P20263 Q61473:68-136,P20263:126-289, Sox17 E122K); conditions: label: 5'-Cy5
Procedure: (§1) 250nM dsDNA probes were mixed with analyte proteins singly or in combinations in binding buffer and incubated for 1 hr at 4° C. in dark. Samples were loaded into a pre-run 12% (w/v) IX Tris-glycine polyacrylamide gel in 1XTG (25 mM Tris, pH 8.3; 192 mM glycine) buffer to separate different species of bound and unbound probes. The fluorescence was detected using a Typhoon 9140 PhosphorImager (Amersham Biosciences).
(§2) FIG. 10: (A) Alignment of the amino acid sequence of all mouse Sox proteins. The Sox subfamilies (Bowles, J. et al., Dev. Biol. (2000) 227: 239-55) are indicated to the right. The numbering corresponds to the Sox17 sequence. Alpha helices are marked with a red bar. The FM wedge is indicated with an orange bar below the alignment and further DNA interacting residues are marked by black closed circles. Highly conserved and similar sequences are shaded in black or gray. The position of glutamate and lysine residues distinguishing Sox17 and Sox2 is marked by an arrow. The eight amino acids in helix 3 of Sox2 that were replaced by their corresponding counterparts found in Sox17 to construct the Sox2″¹⁷ protein are colored red. (B) structural model prepared using pymol by using the structural coordinates for Sox17 and the Sox2/Oct1 on DNA. The van-der-Waals surface of the DNA derived from the Sox2/Oct1 structure is shown in light gray. Sox17 (blue) was superimposed onto Sox2 (gray). Oct1 is shown in black. Note that the linker region connecting the POU specific and the POU homedomain is not present in the NMR derived model due to structural disorder. The glutamate (Sox17) and the lysine (Sox2) that were mutated are shown as ball-and-sticks. Note that the lysine exists in two alternative conformations in the NMR model. (C)Point mutations at the Sox/Oct4 interface swap the differential assembly behavior of Sox2 and Sox17 on the canonical versus the compressed element DNA element derived from a functional sox/oct element within the Nanog enhancer were used (Rodda, D. J. et al. J Biol Chem (2005) 280:24731-7). 2 denotes Sox2HMGs, 17: Sox17HMG, 2KE: Sox2KE, 17EK: Sox17EK and 2α17 the replacement of all Sox2 residues in helix 3 that differ from the corresponding Sox17 residues into their Sox17 counterpart. Sox proteins were incubated with DNA individually and in combination with Oct4.

[1] = target: T1, Sox2HMGs (core HMG)/Oct4POU (Mus musculus, UniProt P48432;P20263 P48432:43-111,P20263:126-289); conditions: label: 5'-Cy5
T1 sequence (P48432 43-111, chain 1 of 2): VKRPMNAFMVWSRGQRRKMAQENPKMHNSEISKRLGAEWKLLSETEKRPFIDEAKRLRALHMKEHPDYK
T1 sequence (P20263 126-289, chain 2 of 2): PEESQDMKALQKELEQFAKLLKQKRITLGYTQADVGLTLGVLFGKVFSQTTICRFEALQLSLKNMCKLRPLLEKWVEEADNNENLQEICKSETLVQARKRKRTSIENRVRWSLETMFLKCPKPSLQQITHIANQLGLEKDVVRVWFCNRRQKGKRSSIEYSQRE
Procedure: as §1, §2

Sox2KE HMG/Oct4POU = Sox2KE HMG/Oct4POU (Mus musculus, UniProt P48432;P20263 P48432:43-111,P20263:126-289, Sox2 K95E); conditions: label: 5'-Cy5
Chain of Sox2KE HMG/Oct4POU (P48432 43-111, stated change not applied, chain 1 of 2): as the sequence (P48432 43-111, chain 1 of 2) above
Chain of Sox2KE HMG/Oct4POU (P20263 126-289, stated change not applied, chain 2 of 2): as the sequence (P20263 126-289, chain 2 of 2) above
Procedure: as §1, §2

Sox17HMG/Oct4POU [2] = target: T2, Sox17HMG/Oct4POU (Mus musculus, UniProt Q61473;P20263 Q61473:68-136,P20263:126-289); conditions: label: 5'-Cy5
T2 sequence (Q61473 68-136, chain 1 of 2): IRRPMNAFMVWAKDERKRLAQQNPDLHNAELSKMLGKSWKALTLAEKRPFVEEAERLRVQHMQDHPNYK
T2 sequence (P20263 126-289, chain 2 of 2): as the sequence (P20263 126-289, chain 2 of 2) above
Procedure: as §1, §2

Sox2HMG1/Oct4POU [3] = target: T3, Sox2HMG1/Oct4POU (Mus musculus, UniProt P48432;P20263 P48432:33-141,P20263:126-289); conditions: label: 5'-Cy5
T3 sequence (P48432 33-141, chain 1 of 2): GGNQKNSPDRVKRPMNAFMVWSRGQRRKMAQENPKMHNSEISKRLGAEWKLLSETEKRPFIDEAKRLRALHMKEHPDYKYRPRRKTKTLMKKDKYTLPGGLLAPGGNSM
T3 sequence (P20263 126-289, chain 2 of 2): as the sequence (P20263 126-289, chain 2 of 2) above
Procedure: (§3) Electrophoretic mobility shift assays: All EMSAs were carried out using double-stranded 5′ Cy5-labeled DNA (Sigma Proligo, see Table 1) (Jauch, R., et al. J. Mol. Biol. (2008) 376(3):758-70). Binding buffer contains 20 mM Tris-HC1 pH 8.0, 50 μM ZnCl₂, 100 mM KCl, 10% glycerol, 2 mM 13-merceptoethanol, 0.1 mg/ml bovine serum albumin (BSA) and 0.1% (v/v) Igepal CA-630. 250nM dsDNA probes were mixed with analyte proteins singly or in combinations in binding buffer and incubated for 1 hr at 4° C. in dark. Samples were loaded into a pre-run 12% (w/v) IX Tris-glycine polyacrylamide gel in 1XTG (25 mM Tris, pH 8.3; 192 mM glycine) buffer to separate different species of bound and unbound probes. The fluorescence was detected using a Typhoon 9140 PhosphorImager (Amersham Biosciences).
(§4) FIG. 8: Differential assembly of Sox2HMG and Oct4POU (A) and Sox17HMG and Oct4 (E) on a series of different motif configurations. Motif configurations were systematically designed as outlined in FIG. 1A using 30bp DNA elements containing identical Sox (CATTGTC) and Oct4 (ATGCAAAT) consensus sequences flanked by GC rich sequences. To minimize binding anomalies due to cryptic elements at the periphery or within the spacer region we used idealized motifs (CATTGTC for sox and ATGCAAAT for oct) and introduced G's and C's as spacer and boundary nucleotides. Each DNA element was mixed with individual transcription factor proteins as well as with both Sox2 and Oct4 DBDs in combination (See supplementary information). 250 nM of every cy5-labelled DNA element was incubated with 50 nM Sox2HMG1/Sox17HMG and 250 nM Oct4POU proteins alone and in combination followed by PAGE to assess the formation of ternary Sox/Oct4/DNA complex. The position of the various protein DNA complexes are marked by arrows. The number of spacer basepairs is indicated above and below the gels. X=-1 denotes the compressed and X=0 the canonical elements. The co-occurrence of canonical and compressed motifs within genomic regions co-bound by Sox2 and Oct4 in mouse embryonic stem cells are depicted in (B). […]

[4] = target: T1, Sox2HMGs (core HMG)/Oct4POU; conditions: label: 5'-Cy5; remark: listed apart in the source
Procedure: as §3
(§5) FIG. 1: EMSAs to assess Sox7, Sox2HMGs and spacer nucleotides. To exclude artifacts that could have been caused by the length difference between the Sox2/Sox17 constructs, the differential assembly of the core Sox2HMG domain (termed Sox2HMGs) was tested. The domain spans the same range of amino acids of the Sox17 construct. The differential assembly of Sox7, another F group Sox protein with strong sequence similarities to Sox17 was also tested. Sox7 and Sox17 had comparably weak Oct4 heterodimerization on canonical elements whereas cooperative binding was observed on the compressed element. Thirdly, the spacer nucleotide of the canonical element on the remaining three possible nucleotides was varied (CATTGT(C/A/T/G)ATGCAAAT). The identity of the spacer nucleotide was found not to have a pronounced impact on the overall dimerization profile of the various Sox protein with Oct4. 50nM of Sox2HMGs, Sox7HMG and Sox17HMG were incubated with canonical elements containing different basebairs at position 7 of the Sox motif (C₁A₂T₃T₄G₅T₆(A/T/C/G)₇; A-D) and on the compressed element (E) in the absence (Lanes 1-3) or presence (Lanes 4-6) of 250 nM Oct4POU.

Sox17HMG = Sox17HMG (Mus musculus, UniProt Q61473 SEQ:68-136); conditions: label: 5'-Cy5
Chain of Sox17HMG (Q61473 68-136): as the sequence (Q61473 68-136, chain 1 of 2) above

Oct4 POU domain [5] = target: T4, Oct4 POU domain (Mus musculus, UniProt P20263 P20263:126-289); conditions: tags: N-terminal MBP tag removed by TEV protease; label: 5'-Cy5
T4 sequence (P20263 126-289, one chain of several): as the sequence (P20263 126-289, chain 2 of 2) above

Sox17HMG/Oct4POU [6] = target: T2, Sox17HMG/Oct4POU; conditions: label: 5'-Cy5; remark: listed apart in the source
Procedure: as §3, §4

[7] = target: Sox2HMG1 (extended HMG domain) (Mus musculus, UniProt P48432 SEQ:33-141); conditions: label: 5'-Cy5
Chain of Sox2HMG1 (extended HMG domain) (P48432 33-141): as the sequence (P48432 33-141, chain 1 of 2) above
Procedure: as §3
(§6) FIG. 9: (A) Differential assembly of Sox2/Oct4 and Sox17/Oct4 on the compressed and canonical elements. Proteins were added to 250nM DNA elements in the sequences indicated above the lanes. To distinguish shifts caused by Sox2 and Sox17 a N and C-terminally extended Sox2-HMG (Sox2HMG1) domain was used in these experiments. As a consequence, both, the Sox2/DNA and the Sox2/Oct4/DNA complex, migrate slower than the corresponding Sox17 complexes, allowing us to visualize a Sox2/Oct4 and Sox17/Oct4 DNA complex on the same gel. […]

Oct4 POU domain [8] = target: T4, Oct4 POU domain; conditions: tags: N-terminal MBP tag removed by TEV protease; label: 5'-Cy5; remark: listed apart in the source
Procedure: as §3, §6

Sox7HMG/Oct4POU = Sox7HMG/Oct4POU (Mus musculus, UniProt P40646;P20263 P40646:45-113,P20263:126-289); conditions: label: 5'-Cy5
Chain of Sox7HMG/Oct4POU (P40646 45-113, chain 1 of 2): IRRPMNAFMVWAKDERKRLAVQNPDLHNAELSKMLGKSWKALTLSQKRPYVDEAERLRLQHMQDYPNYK
Chain of Sox7HMG/Oct4POU (P20263 126-289, chain 2 of 2): as the sequence (P20263 126-289, chain 2 of 2) above
Procedure: as §3, §5

Sox2HMG1/Oct4POU [9] = target: T3, Sox2HMG1/Oct4POU; conditions: label: 5'-Cy5; remark: listed apart in the source
Procedure: as §3
Profiling of Sox/Oct4 Binding to Differentially Configured Motifs: To assess the preference of Sox2 and Oct4 to physically assemble on differentially configured sox/oct motifs in vitro, electrophoretic mobility shift assays (EMSA) were conducted using purified DNA binding domains (DBDs) of Sox2 and Oct4. The heterodimerization potential of Sox2/Oct4 DBD pairs was screened on a panel of systematically modified sox/oct composite motifs (FIG. 7A). A strong cooperative interaction of Sox2 and Oct4 on the canonical element was observed (x=0, FIG. 8A, lanes 5-7). […]

Chain of Sox17EK HMG/Oct4POU (Q61473 68-136 E122K, chain 1 of 2): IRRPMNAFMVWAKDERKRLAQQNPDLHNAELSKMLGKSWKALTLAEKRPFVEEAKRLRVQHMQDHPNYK
Chain of Sox17EK HMG/Oct4POU (P20263 126-289, stated change not applied, chain 2 of 2): as the sequence (P20263 126-289, chain 2 of 2) above

B1: Nanog canonical (dsDNA)
DNA 1: CATGGACATTGTAATGCAAAAGAAGCTG
DNA 2: CAGCTTCTTTTGCATTACAATGTCCATG
Sox17EK HMG/Oct4POU
  binding result: binds
[1]
  binding result: binds

B2: Nanog' compressed (-1) (dsDNA)
DNA 1: CTGGACATTGTATGCAAAAGAA
DNA 2: TTCTTTTGCATACAATGTCCAG
Sox17EK HMG/Oct4POU
  binding result: no binding
Sox2KE HMG/Oct4POU
  binding result: binds
Sox17HMG/Oct4POU [2]
  binding result: binds

B3: canonical sox/oct (0) (dsDNA)
DNA 1: GGCGCGGCATTGTCATGCAAATCGGCGGCG
DNA 2: CGCCGCCGATTTGCATGACAATGCCGCGCC
Sox2HMG1/Oct4POU [3]
  binding result: binds
[4]
  binding result: binds
Sox17HMG
  binding result: binds
Oct4 POU domain [5]
  binding result: binds

B4: compressed sox/oct (-1) (dsDNA)
DNA 1: CGGCGCGGCATTGTATGCAAATCGGCGGCG
DNA 2: CGCCGCCGATTTGCATACAATGCCGCGCCG
Sox17HMG/Oct4POU [6]
  binding result: binds
Sox2HMG1/Oct4POU [3]
  binding result: no binding
[7]
  binding result: binds
Oct4 POU domain [8]
  binding result: binds
Sox7HMG/Oct4POU
  binding result: binds
[4]
  binding result: no binding
Sox17HMG
  binding result: binds

B5: order (dsDNA)
DNA 1: GGCGCGGATGCAAATCATTGTCCGGCGGCG
DNA 2: CGCCGCCGGACAATGATTTGCATCCGCGCC
Sox2HMG1/Oct4POU [9]
  binding result: no binding
